Measurements: the Human Domainome abundance scans (Beltran et al. 2025)

B1: Retinoic acid receptor beta, residues 85 to 161; numbered along this chain, P10826 (parent)
chain: YKPCFVCQDKSSGYHYGVSACEGCKGFFRRSIQKNMIYTCHRDKNCVINKVTRNRCQYCRLQKCFEVGMSKESVRND
B2: POU domain, class 4, transcription factor 2, residues 256 to 327; numbered along this chain, Q12837 (parent)
chain: RDLEAFAERFKQRRIKLGVTQADVGSALANLKIPGVGSLSQSTICRFESLTLSHNNMIALKPILQAWLEEAE

Variants of: B1
Assay: abundance fitness (aPCA) (normalised: wild type 0, dead -1); higher = more abundant; growth selection in yeast, the domain comes from the species named
Conditions: Homo sapiens

Abundance fitness: each site, then its substitutions
C4: T -1.26 | F -0.687 | Q -0.889 | N -0.731 | I -0.917 | V -0.807 | G -0.859 | R -0.827 | P -0.428 | W -0.954 | Y -0.592 | L -0.778 | M -0.754 | A -0.691 | D -0.715
D9: R -0.631 | S -0.71 | G -0.588 | T -1.01 | I -0.726 | A -0.465 | N -0.828 | F -0.65 | M -0.457 | V -0.753 | Y -0.57 | C -0.525 | P -1 | W -0.529 | K -0.722 | Q -0.6 | E -0.03 | H -0.543
K10: C 0.019 | H 0.024 | D 0.112 | A 0.147 | F 0.026 | G -0.045
Y1: C -0.008 | K 0.193 | L -0.086 | M 0.067 | G -0.097 | I -0.01 | R -0.239 | Q -0.132 | W -0.221 | H 0.055 | N 0.255 | T -0.109 | E -0.109 | V 0.158
Q8: C -0.073 | D 0.08 | G 0.044 | P -0.813 | T 0.015 | I -1.01 | K 0 | V -0.598 | A 0.022 | N -0.035 | H 0.055 | S 0.064 | W -0.083 | M 0.029 | R -0.263 | F -0.092 | E 0.111
F5: H -0.435 | Q -0.046 | M -0.155 | R -0.421 | Y -0.043 | A 0.053 | V -0.154 | L -0.076 | T -0.048 | I -0.022 | W -0.316 | S -0.053 | N -0.39 | P 0.076 | D -0.314 | E -0.38 | G -0.118 | K -0.418 | C -0.244
P3: W -0.223 | H 0.006 | D 0.225 | C -0.101 | S 0.031 | E 0.136 | K 0.048 | Y 0.174 | L 0.027 | F 0.037 | N 0.162 | R -0.321 | Q 0.079 | V -0.023 | I -0.042 | A 0.064
K2: S -0.068 | R -0.282 | H 0.091 | M -0.074 | Y -0.1 | N 0.162 | P -0.169 | G -0.182 | W -0.308 | I -0.144 | A -0.289 | L -0.162 | E -0.285 | V -0.104 | Q 0.052 | D 0.017 | F -0.266
V6: C -0.995 | W -0.795 | N -0.873 | E -1.02 | F -0.374 | R -0.83 | H -0.748 | Q -0.926 | A -0.711 | G -0.746 | I -0.13 | K -0.82 | P -0.849 | L -0.81 | M -0.76 | T -0.822 | S -0.907
C7: Y -0.609 | V -0.879 | F -0.999 | T -0.438 | G -1.05 | W -0.656 | D -0.724 | Q -1 | I -0.806 | S -0.868 | H -0.932 | M -0.753 | A -0.991 | L -0.832 | E -1.23 | N -0.615 | K -0.879

Variants of: B2
Assay: as above
Conditions: Homo sapiens

Abundance fitness of substitutions, site by site:
W67: Q 0.108 | R -0.755
E70: L -0.454 | V -0.186 | D -0.212 | S -0.11 | R -0.075 | A -0.058 | F -0.543 | C -0.102 | Y -0.028 | P -0.826 | W -0.45 | T -0.231 | I -0.156 | G -0.313 | M -0.332 | K 0.076 | H -0.666
Q65: T -0.19 | W -0.504 | K -0.074 | M -0.235 | E 0.058 | S -0.028 | D -0.186 | N -0.309 | F -0.369 | V -0.324 | I -0.502 | A -0.084 | R -0.37 | C -0.132 | G -0.106 | P -0.528
E72: V -0.419 | D -0.425 | H -0.38 | Y -0.206 | T -0.498 | A -0.617
L64: A -0.902 | Y -0.416 | G -0.787 | S -0.669 | W -1.11 | D -0.6 | Q -0.75 | H -0.769 | T -0.769 | K -0.884 | P -0.98 | R -1.08 | V -0.295 | N -0.823 | I -0.394 | M -0.371
P62: Q -0.623 | I -0.638 | F -0.761 | M -0.811 | R -0.771 | N -0.44 | Y -0.827 | H -0.23 | L -0.982 | K -0.698 | A -0.668 | D -0.18 | V -0.726 | S -0.465 | E -0.457 | G -0.628 | T -0.533
A71: Q -0.188 | L -0.433 | D -0.614 | G -0.284 | H -0.223 | W -0.057 | F -0.02 | M -0.4 | V -0.296 | P -0.671 | E -0.247 | K -0.125 | S -0.183 | I -0.11 | N -0.225
L60: W -0.729 | P -0.971 | T -0.436 | Y -0.081 | M -0.038 | R -0.607 | I 0.201 | N -0.682 | Q -0.843 | S -0.77
A66: Y -0.298 | T -0.096 | H -0.153 | V -0.153 | I -0.187 | W -0.138 | P -0.524 | K 0.004 | D 0.098 | R -0.008 | M -0.246 | G -0.08 | E -0.007 | C -0.378
E69: G -0.18 | D -0.349 | Y -0.367 | I -0.248 | C -0.062 | L -0.099 | Q -0.001 | S -0.097 | N -0.219 | K -0.458 | A -0.119 | R -0.211 | T -0.133 | F -0.251 | H -0.481 | V -0.178
I63: R -0.314 | P -0.329 | A -0.03 | Y -0.333 | G -0.414 | S -0.224 | D -0.438 | T -0.098 | H 0.07 | V -0.006 | L -0.217 | Q -0.489 | W -0.443 | N -0.628 | E -0.018 | K -0.495 | C -0.231 | M -0.382 | F 0.164
K61: Y -0.237 | H -0.137 | L -0.148 | N -0.393 | F -0.38 | M 0.037 | E -0.32 | R 0.049 | S -0.42 | W -0.125 | G -0.47 | T -0.02 | Q -0.047 | P -0.802 | A -0.178 | I -0.328
L68: D -0.617 | P -0.589 | A -0.483 | C -0.585 | Q -0.107 | R -0.847 | V -0.384 | S -0.559 | M -0.461 | G -0.777 | Y -0.372 | T -0.733 | W -0.663 | N -0.232
